The values below come from the nanobody polyreactivity screen of Harvey et al. (2022).

A short description of the series: yeast display, Sf9 membrane polyspecificity reagent, FACS + sequencing; frameworks hold sequencing errors. In outline:
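A nanobody's polyreactivity label depends on the gate it was sorted from. Yeast display cells were stained with 10% biotinylated, detergent-solubilized Sf9 membrane reagent for 1 hour at 4 °C, enriched on streptavidin microbeads and sorted by FACS. The low and high (top ~1%) gates were set on anti-HA fluorescence for expression and streptavidin fluorescence for reagent binding.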
Turning to “QVQLVESGGGLVQAGGSLRLSCAASGGTFGSYARGWYRQAPGNEREFVAAIRRGTSTYYADSVQGRFTISRDNAKNTVYLQMNRLKPEDTEVYYCAATPQAHSERYYYQRKYDYWGQGTQVTVSS”, the “polyreactivity (PSR sort gate)” value was “low polyreactivity”.
For the sequence “QVQLVESGGGLVQAGGSLRLSCAASGGTFGTNTMGWYRQAPGKERELVAAISKRGGRTYYADSVKGRFTISRDNAKNTVYLQMNSLKPEDTAVYYCAADTGGNPKYDYWGQGTQVTVSS”, the “polyreactivity (PSR sort gate)” value is listed as “high polyreactivity”.
The same measure for “QVQLVESGGGLVQAGGSLRLSCAASGGTFGYYAMGWYRQAPGKERELVAAINRSDGGTYYADSVKGRFTISRDNAKNTVYLQMNSLKPEDTAVYYCNADDFYYDEPYDYWGQGTQVTVSS”: “low polyreactivity”.
As for “QVQLVESGGGLVQAGGSLRLSCAASGGTFIANAMGWYRQAPGKERELVATINANADTTYYADSVKGRFTISRDNAKNTVYLQMNSLKPEDTAVYYCAAAQRYPIKYYYWGQGTQVTVSS”, the “polyreactivity (PSR sort gate)” value was “low polyreactivity”.
With “QVQLVESGGGLVQAGGSLRLSCAASGGTFKFYAMGWYRQAPGKERELVAAISRRGGNTYYADSVKGRFTISRDNAKNTVYLQMNSLKPEDTAVYYCAVDYRSTGFGYWGQGTQVTVSS”, the “polyreactivity (PSR sort gate)” value was “high polyreactivity”.
Regarding “QVQLVESGGGLVQAGGSLRLSCAASGGTFLAYAMGWYRQAPGKERELVAAITRRGTRTYYADSVKGRFTISRDNANNTVYLQMNSLKPEDTAVYYCAVSGGFYWGQGTQVTVSS”, the “polyreactivity (PSR sort gate)” value is “high polyreactivity”.
Consider “QVQLVESGGGLVQAGGSLRLSCAASGGTFLGYAMGWYRQAPGKDRELVAAIAASGGNTYYADSVKGRFTISRDNAKNTVYLQMNSLKPEATAVYYGAARQYRSVLKYDYWGQGTQVTVSS”, for which the “polyreactivity (PSR sort gate)” value is given as “high polyreactivity”.
Consider “QVQLVESGGGLVQAGGSLRLSCAASGGTFLYYAMGWYRQAPGKETELVAAISRGGSTHYADSVKGRFTISRDNAKNTVYLQMNSLKPEDTAVYYCAVDGGEFSSYGYWGQGTQVTVSS”, for which the “polyreactivity (PSR sort gate)” value was “low polyreactivity”.
Turning to “QVQLVESGGGLVQAGGSLRLSCAASGGTFPQYAKGWYRQAPGKEREFVADITTRGGTTYYADSVKGRFTISRDNAKNTVYLQMNSLKPEENAVYYCAADNPADWWGLDYWGQGTQVTVSS”, the “polyreactivity (PSR sort gate)” value is “low polyreactivity”.
As for “QVQLVESGGGLVQAGGSLRLSCAASGGTFPRYAMGWYRQAPGKERELVAAISRSGGSTYYADSVKGRFTISRDNAKNTVYLQMNSLKPEDTAVYYCATGYSYIMDYWGQGTQVTVSS”, the “polyreactivity (PSR sort gate)” value is on record as “high polyreactivity”.
Consider “QVQLVESGGGLVQAGGSLRLSCAASGGTFPYNAMGWYRQAPGKERELVAVITSGDGTYYADSVKGRFTISRDNAKNTVYLQMNSLKPEDTAVYYCAADYVVWFSFVYVVEYDYWGQGTQVTVSS”, for which the “polyreactivity (PSR sort gate)” value was “low polyreactivity”.
As to “QVQLVESGGGLVQAGGSLRLSCAASGGTFQRYAMGWYRQAPGKERELVAAISSGGRTYYADSVKGRFTISRDNAKNTVYLQMNSLKAVDTAVYYCNAVGWTRYWRIGWSAYYYWGQGTQETVSS”, the “polyreactivity (PSR sort gate)” value is listed as “high polyreactivity”.
On to “QVQLVESGGGLVQAGGSLRLSCAASGGTFQSNALGWYRQAPAKERELVASITSRGSSTYYADSVKGRFTISRDNAKNTVYLQMNSLKPEDTAVYYCAKGRSWQIYYKGGIKGGYWGQGTQVTVSS”, for which the “polyreactivity (PSR sort gate)” value is “low polyreactivity”.
As for “QVQLVESGGGLVQAGGSLRLSCAASGGTFQSNAMGWYRQAPGKERELVASITSRGSSTYYADSVKGRFTISRDNAKNTFYLLMNSLKPEDTAVYYCAKGSSWQIYYKGGIKGGYWGQGTQVTVSS”, the “polyreactivity (PSR sort gate)” value is “low polyreactivity”.
As for “QVQLVESGGGLVQAGGSLRLSCAASGGTFRANAMVWYRQAPGKERELVAAISFRGGTTYYADSVKGRFTISRDNAKTTVYLQMNSLKPEDTAVYYCAAGRRGSYYYWGQGTQVTVSS”, the “polyreactivity (PSR sort gate)” value is listed as “high polyreactivity”.
In the case of “QVQLVESGGGLVQAGGSLRLSCAASGGTFRLNAMGWYRQAPGKERELVATITRRGGSTYYADSVKGRFTISRDNAKNTVYLQMNSLKPEDTAVYYCAARDVYRGGLFDYWGQGTQVTVSS”, the “polyreactivity (PSR sort gate)” value was “high polyreactivity”.
As for “QVQLVESGGGLVQAGGSLRLSCAASGGTFRVYAMGWYRQAPGKERELVAAISGGGRTYADSVKGRFTISRDNAKITVYLQMNSLKPEDTAVYYCNTRRYYRVTTVKRYDYWGQGTQVTVSS”, the “polyreactivity (PSR sort gate)” value is “high polyreactivity”.
The same measure for “QVQLVESGGGLVQAGGSLRLSCAASGGTFRVYVMGLYRQATGKERELVAAISRGGGSTYYADSVKGRFTISRDNAKNTVYLQMNSLKPEDTAVYYCAARVWRYPWRASEYDYWGQGTQVTVSS”: “high polyreactivity”.
With “QVQLVESGGGLVQAGGSLRLSCAASGGTFSFYAMGWYRQAPGKEREFVAAITASDGSTYYADSVKGRFTSSRDNAKNTVYLQMNSLKPEDTAVYYCAADAYGYKFNSWGQGTQVTVSS”, the “polyreactivity (PSR sort gate)” value is “low polyreactivity”.
On to “QVQLVESGGGLVQAGGSLRLSCAASGGTFSGYTMGWYRQAPGKERELVAAINWSGGRTYYADSVKGRFTISRDNAKNTAYLQMNSLKPEDTAVYYSNKYGLYYREYDYWGQGTQVTVSS”, for which the “polyreactivity (PSR sort gate)” value is “high polyreactivity”.
The same measure for “QVQLVESGGGLVQAGGSLRLSCAASGGTFSPYDMGWYRQAPGKERELVASITGSGGSTYYADSVKGRFTISRGNAKNTVYLQMNSLKPEETAVYYCAAQGYWTYWPYLLRLYDYWGQGTQVTVSS”: “low polyreactivity”.
For the sequence “QVQLVESGGGLVQAGGSLRLSCAASGGTFSTNAMGWYRQAPGKERELVAAISLSGGRTYADSVKGRFTISRDNAKNTVYLQMNSLKPEDTAVYYCNADSAGITRARSELDYWGQGTQVTVSS”, the “polyreactivity (PSR sort gate)” value is recorded as “low polyreactivity”.
“QVQLVESGGGLVQAGGSLRLSCAASGGTFSWYAMGWYRQAPGKERELVAAITARGGSTYYADSVKGRFTISRDNAKNTVYLQMNSLKPEDTAVYYCNKRTRSLVRYNSGGYSVGYWGQCTQVTVSS”: the “polyreactivity (PSR sort gate)” value is on record as “high polyreactivity”.
Regarding “QVQLVESGGGLVQAGGSLRLSCAASGGTFSYNAMGWYRQAPGKERELVAAISWSGTRTYYADSVKGRFTISRDNAKNTVYLQMNSLKPEDTAVYYCNKPPPNRGRYDYWGQGTQVTVSS”, the “polyreactivity (PSR sort gate)” value was “low polyreactivity”.
Consider “QVQLVESGGGLVQAGGSLRLSCAASGGTFTHYGMGWYRQAPGKERELVAAITWTASSTYYADSVKGRFTISRDNAKNTVYLQMNSLKPEDTAVYYCATSYYYWGHTYDYWGQGTQVTVSS”, for which the “polyreactivity (PSR sort gate)” value is recorded as “low polyreactivity”.
The same measure for “QVQLVESGGGLVQAGGSLRLSCAASGGTFTIYAMGWYRQAPGKERELVATINRGDRTNYADSVKGRFTISRDNAKNTVYLQMNSLKPEDTAVYYCAADFYYWYRGVYFVTRNYYWGQGTQVTVSS”: “high polyreactivity”.
Regarding “QVQLVESGGGLVQAGGSLRLSCAASGGTFVRYVMGWYRPAPGKERELVAAISGSGGSTYYADTVKGRFTISRDNAKNTVYLQMNSLKPEASAVYYCASVYYWSKFYYWGQGTQVTVSS”, the “polyreactivity (PSR sort gate)” value is given as “high polyreactivity”.
As for “QVQLVESGGGLVQAGGSLRLSCAASGGTFVSNAMGWYRHAPGKERELVAAITTGGTTYADSVKGRFTISRDNAKNSVYLQMKSLKPEDSAVYYCAADIYLLILGRSILQFDYWGQGTQVTVSS”, the “polyreactivity (PSR sort gate)” value is “low polyreactivity”.
The result for “QVQLVESGGGLVQAGGSLRLSCAASGGTFVSYVMGWYRQAPGKEREWVAAISVSGGRTYYADSVKGRFTISRDNAKNTVYLQMNSLKPEDTAVYYCAADSVVVGSPGNDYWGQGTQVTVSS” reads “high polyreactivity”; that for “QVQLVESGGGLVQAGGSLRLSCAASGGTFVYSAMGWYRQAPGKERELVAAINWSGGSTYYADSVKGRFTISRDNAKNTVYLQMNILKAEDTAVLLLQRSGLRRSGVWFDYWGQGTQVTVSS”, “low polyreactivity”.
Turning to “QVQLVESGGGLVQAGGSLRLSCAASGGTFVYYAMGWYRQAPGKERELVAAITSRGTSTYYADSVKGRFTISRDNAKNTVYLQMNSLKPEDTAVYYCAAGTPRGILRNSSYNYWGQGTQVTVSS”, the “polyreactivity (PSR sort gate)” value is recorded as “high polyreactivity”.
Take “QVQLVESGGGLVQAGGSLRLSCAASGGTFVYYTMGWYRQAPGKERELVAAISGRGGRTYYADSVKGRFTISRDNAKNTVYLQMNSLKPEDTAVYYCTATQIGPYYLPFDSWGQGTQVTVSS”: the “polyreactivity (PSR sort gate)” value was “high polyreactivity”.
For the sequence “QVQLVESGGGLVQAGGSLRLSCAASGGTFWLYAMGWYRQAPGKEREFVAAISYSGGSTYYADSVKGRFTISRDHAKNTVYLQMNSLKPEDTAVYYCAASAYYLDYDYWGQGTQVTVSS”, the “polyreactivity (PSR sort gate)” value is given as “high polyreactivity”.
The result for “QVQLVESGGGLVQAGGSLRLSCAASGGTFWVNMGWYRQAPGKEREFVAAITWSAGSTYYADSVKGRFTISRDNAKNTVYLQMNSLKPEDTAVYYCAGGGGHYQEYLMEDYWGQGTQVTVSS” reads “high polyreactivity”; that for “QVQLVESGGGLVQAGGSLRLSCAASGGTFWYYAMGWYRQAPGKEREFVAAISSRGGNTYYADSVKGRFTISRDNAKNTVYLQMNSLKPEDTAVYYCNAKTHRRYSENYYWGQGTQVTVSS”, “high polyreactivity”.
With “QVQLVESGGGLVQAGGSLRLSCAASGGTFYFYAMGWYRQAPGKERELVATITRGGSTYYADSVKGRFTISRDNAKNTVYLQMNSLKPEDTAVYYCAARQYSRRRSPVSTWYYYWGQGTQVTVSS”, the “polyreactivity (PSR sort gate)” value is reported as “high polyreactivity”.
In the case of “QVQLVESGGGLVQAGGSLRLSCAASGGTFYINTMGWNRQAPGKERELVATITIVVSTKYADSVKGRFTISRDNAKNTVYLQMNSLNPEDTAVYYCAKDDVYRDSFLVFDGEMVYWGQGTQVTVSS”, the “polyreactivity (PSR sort gate)” value is given as “low polyreactivity”.
The same measure for “QVQLVESGGGLVQAGGSLRLSCAASGGTFYPYAMGWYRQAPGKERELVAAISRGGGSTSYADSVKGRFTISRDNAQNTVYLQMNSLKPEDTAVYYSNAYTYYHANHEQGFGYWGQGTQVTVSS”: “low polyreactivity”.
As to “QVQLVESGGGLVQAGGSLRLSCAASGGTFYRYAMGWYRQAPGKEMELVAAISSRGGSTYYADSVKGRFTISRDNAKNTVYLQMNSLKPEDTAVYYCAALFYLTPWQYDYWGQGTQVTVSS”, the “polyreactivity (PSR sort gate)” value is reported as “high polyreactivity”.
Regarding “QVQLVESGGGLVQAGGSLRLSCAASGGTFYRYAMGWYRQAPGNERELVAAISSSGGRTYYADSVKGRFTISRDNAKNTVYVQMNSLKPEDTAVYYCNARYPRLHRTYNYWGQGTQVTVSS”, the “polyreactivity (PSR sort gate)” value is reported as “high polyreactivity”.
